Article PMC11862925

How the values were obtained:
[1] = molecular target: SARS-CoV-2 RBD (residues 319–541), Wuhan-Hu-1 (SARS-CoV-2) (UniProt P0DTC2); experiment: BLI
ACE2-COMP (human | rat) = ACE2-COMP (human | rat) (UniProt Q9BYF1); experiment: negative stain electron microscopy

“ACE2-COMP (from UniProt Q9BYF1 19-615; P35444 29-73)” was tested, and the Kd [1] was under 0.025 nM, the percent of bound ACE2 still attached after more than 8 h of dissociation [1] was 90% and the stoichiometry N (ACE2-COMP (human | rat)) was 5.
